{
  "source": "the supplement of paper PMC7125110",
  "parents": {"B1": {"name": "glmS ribozyme (parent)", "chain": "AUAAAAGCGCCAGAACUACAGAAAUGUAGUUGACGAGGAGGAGGUUUAUCGAAUUUUCGGCGGAUGCCUCCAAA"}},
  "conditions_in_all_cases": "with glucosamine-6-phosphate",
  "key": {"[1]": {"variants_of": "B1", "assay": "self-cleavage kobs at 160 uM GlcN6P; higher = faster cleavage; RNA array", "procedure,_shortened": "(§1)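 kobs was derived by fitting per-tile medians to one- or two-exponential decays after normalising signals to baseline and to non-cleaving reference variants. Those signals came from barcoded ribozyme variants transcribed in situ by E. coli RNA polymerase on sequenced MiSeq chips, followed through a hybridised Cy3 probe at 37 °C and imaged over ~14 h. Glucosamine-6-phosphate (40 μM to 10 mM) in HEPES/KCl/Mg(OAc)2 buffer was flowed in. Weighted Michaelis–Menten fits across concentrations then gave kcat and KM.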"}, "[2]": {"variants_of": "B1", "assay": "self-cleavage kobs at 2500 uM GlcN6P; higher = faster cleavage; RNA array", "procedure,_shortened": "as §1"}, "[3]": {"variants_of": "B1", "assay": "self-cleavage kobs at 10000 uM GlcN6P; higher = faster cleavage; RNA array", "procedure,_shortened": "as §1"}, "[4]": {"variants_of": "B1", "assay": "self-cleavage kobs at 640 uM GlcN6P; higher = faster cleavage; RNA array", "procedure,_shortened": "as §1"}},
  "note": "± gives the standard error. Fewer inactive variants are shown than the library holds.",
  "data": [
    {"variant": "AUAAACGCGCCAGAACUACAGAAAUGUAGUUGACGAGGAUGAGGUUUAUCGAAUUUUCGGAGGAUGCCUCCAAA", "note": "[A6C G40U C61A]", "values": [
      {"measurement": "self-cleavage kobs at 160 uM GlcN6P", "setting": "[1]", "value": "< 1e-05", "unit": "s⁻¹"},
      {"measurement": "self-cleavage kobs at 2500 uM GlcN6P", "setting": "[2]", "value": "< 1e-05", "unit": "s⁻¹"},
      {"measurement": "self-cleavage kobs at 10000 uM GlcN6P", "setting": "[3]", "value": "< 1e-05", "unit": "s⁻¹"}
    ]},
    {"variant": "AUAAACGCGCCAGAACUACAGAAAUGUAGUUGAUGAGGAGGAGGUUUAUCGAAUUCUCGGCGGAUGCCUCCAAA", "note": "[A6C C34U U56C]", "values": [
      {"measurement": "self-cleavage kobs at 160 uM GlcN6P", "setting": "[1]", "value": "< 1e-05", "unit": "s⁻¹"}
    ]},
    {"variant": "AUAAAGGCGCCCGAACUACAGAAAUGUAGUUGACGAGGAAGAGGUUUAUCGAAUUUUCGGCGGAUGCCUCCAAA", "note": "[A6G A12C G40A]", "values": [
      {"measurement": "self-cleavage kobs at 160 uM GlcN6P", "setting": "[1]", "value": "< 1e-05", "unit": "s⁻¹"},
      {"measurement": "self-cleavage kobs at 640 uM GlcN6P", "setting": "[4]", "value": "< 1e-05", "unit": "s⁻¹"},
      {"measurement": "self-cleavage kobs at 2500 uM GlcN6P", "setting": "[2]", "value": "< 1e-05", "unit": "s⁻¹"}
    ]},
    {"variant": "AUAAACGAGCCAGAACUACAGAAAUGUAGUUGACGAGGAGGAGGUUUAUCGAAUUUUCGGCGGAUGACUCCAAA", "note": "[A6C C8A C67A]", "values": [
      {"measurement": "self-cleavage kobs at 160 uM GlcN6P", "setting": "[1]", "value": "< 1e-05", "unit": "s⁻¹"},
      {"measurement": "self-cleavage kobs at 640 uM GlcN6P", "setting": "[4]", "value": "< 1e-05", "unit": "s⁻¹"},
      {"measurement": "self-cleavage kobs at 2500 uM GlcN6P", "setting": "[2]", "value": "< 1e-05", "unit": "s⁻¹"},
      {"measurement": "self-cleavage kobs at 10000 uM GlcN6P", "setting": "[3]", "value": "< 1e-05", "unit": "s⁻¹"}
    ]},
    {"variant": "AUAAACGGGCCAGAACUACAGAAAUGUAGUUGACGAGGAGGAGGUUUAUCGAAUUUUCGGCGGAUCCCUCCAAA", "note": "[A6C C8G G66C]", "values": [
      {"measurement": "self-cleavage kobs at 160 uM GlcN6P", "setting": "[1]", "value": "< 1e-05", "unit": "s⁻¹"},
      {"measurement": "self-cleavage kobs at 640 uM GlcN6P", "setting": "[4]", "value": "< 1e-05", "unit": "s⁻¹"}
    ]},
    {"variant": "AUAAACGCGCCAGAACUACAGAAAUGUAGUUGACGAGCAGGAGGUUUAUCGAAUUUUCGGCGGAUGCCUCCAAA", "note": "[A6C G38C]", "values": [
      {"measurement": "self-cleavage kobs at 160 uM GlcN6P", "setting": "[1]", "value": "< 1e-05", "unit": "s⁻¹"},
      {"measurement": "self-cleavage kobs at 640 uM GlcN6P", "setting": "[4]", "value": "< 1e-05", "unit": "s⁻¹"}
    ]},
    {"variant": "AUAAACGCGCCAGAACUACAGAAAUGUACUUGACGAGGAGGAGGUUUAUCGAAUUUUGGGCGGAUGCCUCAAAA", "note": "[A6C G29C C58G C71A]", "values": [
      {"measurement": "self-cleavage kobs at 160 uM GlcN6P", "setting": "[1]", "value": "6.35e-05 ± 1.9e-05", "unit": "s⁻¹"},
      {"measurement": "self-cleavage kobs at 640 uM GlcN6P", "setting": "[4]", "value": "0.000108 ± 4.5e-05", "unit": "s⁻¹"}
    ]},
    {"variant": "AUAAAGGCGCCAGAACUACAGAAAUGUAGUUGACGUGGAGAAGGUUAAUCGAAUUUUCGGCGGAUGGCUCCAAA", "note": "[A6G A36U G41A U47A C67G]", "values": [
      {"measurement": "self-cleavage kobs at 160 uM GlcN6P", "setting": "[1]", "value": "< 1e-05", "unit": "s⁻¹"},
      {"measurement": "self-cleavage kobs at 640 uM GlcN6P", "setting": "[4]", "value": "< 1e-05", "unit": "s⁻¹"},
      {"measurement": "self-cleavage kobs at 2500 uM GlcN6P", "setting": "[2]", "value": "< 1e-05", "unit": "s⁻¹"}
    ]},
    {"variant": "AUAAACGAGCCAGAACUACAGAAAUGUAGUCGACGAGGAGGAGGUUUAUCGAAUUUUCGGCGGAUGCCUCCAAA", "note": "[A6C C8A U31C]", "values": [
      {"measurement": "self-cleavage kobs at 160 uM GlcN6P", "setting": "[1]", "value": "< 1e-05", "unit": "s⁻¹"},
      {"measurement": "self-cleavage kobs at 2500 uM GlcN6P", "setting": "[2]", "value": "< 1e-05", "unit": "s⁻¹"}
    ]},
    {"variant": "AUAAACGCGCCAGAACUACAGAAAUGUAGUUGACGGGGAGGAGGUUGAUCGAAUUUUCGGCGGAUGCCUCCAAA", "note": "[A6C A36G U47G]", "values": [
      {"measurement": "self-cleavage kobs at 160 uM GlcN6P", "setting": "[1]", "value": "< 1e-05", "unit": "s⁻¹"},
      {"measurement": "self-cleavage kobs at 640 uM GlcN6P", "setting": "[4]", "value": "< 1e-05", "unit": "s⁻¹"}
    ]},
    {"variant": "AUAAACGCGCCAGAUCUACAGAAAUGUAGUUGACGAGGAGGAGGUUUAUCGAAUUUUCGGCGGAUGCCUCCAAA", "note": "[A6C A15U]", "values": [
      {"measurement": "self-cleavage kobs at 160 uM GlcN6P", "setting": "[1]", "value": "< 1e-05", "unit": "s⁻¹"}
    ]},
    {"variant": "UGGAUAGCGCCAGCACUACAGAAAUGUAGUUGACGAGGAGGAGGUUUAUCGAAUUUUCGGCGGAUGCCCCCAAA", "note": "[A1U U2G A3G A5U A14C U69C]", "values": [
      {"measurement": "self-cleavage kobs at 160 uM GlcN6P", "setting": "[1]", "value": "5.02e-05 ± 1.8e-05", "unit": "s⁻¹"},
      {"measurement": "self-cleavage kobs at 640 uM GlcN6P", "setting": "[4]", "value": "0.000257 ± 6e-05", "unit": "s⁻¹"},
      {"measurement": "self-cleavage kobs at 2500 uM GlcN6P", "setting": "[2]", "value": "0.000526 ± 0.00012", "unit": "s⁻¹"}
    ]},
    {"variant": "AUAAACGCGCCAGGACUACAGAAAUGUACUUGACGAGGCGGAGGUUUAUCGAAAUUUCGGCGGAUGCCUCCAAA", "note": "[A6C A14G G29C A39C U54A]", "values": [
      {"measurement": "self-cleavage kobs at 160 uM GlcN6P", "setting": "[1]", "value": "< 1e-05", "unit": "s⁻¹"},
      {"measurement": "self-cleavage kobs at 640 uM GlcN6P", "setting": "[4]", "value": "< 1e-05", "unit": "s⁻¹"}
    ]},
    {"variant": "ACAAAAGCGCCAGAAGUACAGAAAUGUAGUUGACGAGGAGGAGGUUUAUCGACUUUUCGGCGGAUGCCUCCAAA", "note": "[U2C C16G A53C]", "values": [
      {"measurement": "self-cleavage kobs at 160 uM GlcN6P", "setting": "[1]", "value": "4.66e-05 ± 1.6e-05", "unit": "s⁻¹"},
      {"measurement": "self-cleavage kobs at 640 uM GlcN6P", "setting": "[4]", "value": "0.000137 ± 1.9e-05", "unit": "s⁻¹"},
      {"measurement": "self-cleavage kobs at 2500 uM GlcN6P", "setting": "[2]", "value": "0.000285 ± 4.6e-05", "unit": "s⁻¹"}
    ]},
    {"variant": "AUAAACGCGCCAGAACUACAGAAAUGUAGUUGACCAGGAGAAGGUUUAUCGAAUUUUCGGCAGAUGCCUCCAAA", "note": "[A6C G35C G41A G62A]", "values": [
      {"measurement": "self-cleavage kobs at 160 uM GlcN6P", "setting": "[1]", "value": "< 1e-05", "unit": "s⁻¹"},
      {"measurement": "self-cleavage kobs at 640 uM GlcN6P", "setting": "[4]", "value": "< 1e-05", "unit": "s⁻¹"}
    ]},
    {"variant": "ACAAAAGCUCCAGAACUACAGAAAUGUAGUUGACGAGGAGGAGGUUUAUCGAAUUAUCGGCGGAUGCCUCUAAA", "note": "[U2C G9U U56A C71U]", "values": [
      {"measurement": "self-cleavage kobs at 160 uM GlcN6P", "setting": "[1]", "value": "< 1e-05", "unit": "s⁻¹"},
      {"measurement": "self-cleavage kobs at 640 uM GlcN6P", "setting": "[4]", "value": "< 1e-05", "unit": "s⁻¹"}
    ]}
  ]
}
